Test results taken from patent publication US20250215104A1 (WALDEN BIOSCIENCES, published 2025).
Numbering of substitutions follows the chain as printed.

B1: suPAR_DB04_E02 (scFv, V domains shown)
VH: QVQLVQSGAEVKKPGASVKVSCKASGYTFTSYYMHWVRQAPGQGLEWMGWIDPENGSTIYDQKFQGRVTMTRDTSTSTVYMELSSLRSEDTAVYYCARGYDVDWFVYWGQGTLVTVSS
VL: DIQMTQSPSSLSASVGDRVTITCRARSSVSYMYWYQQKPGKAPKLLIYATSNLASGVPSRFSGSGSGTDFTLTISSLQPEDFATYYCQQYHSYPPTFGGGTKVEIK
notes: scFv clone from phage display
B2: suPAR_DB01_C01 (scFv, V domains shown)
VH: B1 VH with S31G, P53H, S57N
VL: B1 VL with R24S, A49R
notes: screened as scFv
B3: suPAR_DB01_A03 (scFv, V domains shown)
VH: B1 VH with Y32N, M34I, P53H, I59S
VL: B1 VL with R24S, A49R
notes: screened as scFv
B4: suPAR_DB01_A04 (scFv, V domains shown)
VH: B1 VH with S31G, P53H, S57N
VL: B1 VL with R24S, R26S, S27Q, A49R
notes: screened as scFv
B5: suPAR_DB01_A05 (scFv, V domains shown)
VH: B1 VH with S31G, P53H, S57N
VL: B1 VL with S27Q, A49R
notes: screened as scFv
B6: suPAR_DB01_A06 (scFv, V domains shown)
VH: B1 VH with P53H, S57N
VL: B1 VL with S27Q, A49R
notes: screened as scFv
B7: suPAR_DB01_A02 (scFv, V domains shown)
VH: EVQLEESGAELVRPGALVKLSCKASGFNIKDYYIHWVKQRPEQGLEWIGWIDHENGNTIYDPKFQGKASITLDTSSNTAYLQLNSLTSEDTAVYYCARGYDVDWFVYWGQGTLVTVSS
VL: QIVLTQSPAIMSASPGEKVTIYCSARSSVSYMYWYQQKPGSSPKPWIYRTSNLASGVPARFSGSGSGTSYSLTISSMEAEDAATYYCQQYHSYPPTFGGGTKLEIK
notes: screened as scFv
B8: suPAR_DB03_A12 (scFv, V domains shown)
VH: QVQLVQSGAEVKKPGASVKVSCKASGYTFSRYYMHWVRQAPGQGLEWIGWMNPNTGDTGYAQKFQGRVTMTRDTSTSTVYMELSSLRSEDTAVYYCARGYDVDFFVYWGQGTLVTVSS
VL: DIQMTQSPSSLSASVGDRVTITCRASQGISGWLAWYQQKPGKAPKLLIYDASSLQSGVPSRFSGSGSGTDFTLTISSLQPEDFATYYCQQSYSDPLTFGGGTKVEIK
notes: screened as scFv
B9: suPAR_DB06_E05 (scFv, V domains shown)
VH: B1 VH with Y32H, M34I, H35Q, P53H, S57N, Y100T
VL: B1 VL with R24S, A49R
B10: suPAR_DB06_E06 (scFv, V domains shown)
VH: B1 VH with Y27D, F29S, P53H
VL: B1 VL with R24S, A49R
B11: suPAR_DB06_E07 (scFv, V domains shown)
VH: B1 VH with S31N, M34L, E54H, N55S, S57G, I59N, D61A, R98S
VL: B1 VL with R24S, A49R
B12: suPAR_DB06_E08 (scFv, V domains shown)
VH: B1 VH with T28G, S31D, P53H, E54S, N55G, S57N, D61A
VL: B1 VL with R24S, S27Q, A49R
B13: suPAR_DB06_E09 (scFv, V domains shown)
VH: B1 VH with Y27H, S31N, M34V, P53H, I59S
VL: B1 VL with R24S, A49R
B14: suPAR_DB06_E10 (scFv, V domains shown)
VH: B1 VH with Y27D, T30I, S57N
VL: B1 VL with R24S, A49R
B15: suPAR_DB06_E11 (scFv, V domains shown)
VH: B1 VH with S31G, P53H, S57N, D61A
VL: B1 VL with R24S, R26S, A49R
B16: suPAR_DB06_E12 (scFv, V domains shown)
VH: B1 VH with P53H, S57N, I59S, D61A
VL: B1 VL with A49R
B17: suPAR_DB06_F01 (scFv, V domains shown)
VH: B1 VH with Y27G, M34V, N55G, S57N, I59S
VL: B1 VL with R24S, A49R
B18: suPAR_DB06_F02 (scFv, V domains shown)
VH: B1 VH with S31N, P53H, I59S
VL: B1 VL with S27Q, A49R
B19: suPAR_DB06_F03 (scFv, V domains shown)
VH: B1 VH with T28S, S31N, P53H, S57N, Y100N
VL: B1 VL with R24S, R26S, S27Q, A49R
B20: suPAR_DB06_F04 (scFv, V domains shown)
VH: B1 VH with T28R, S57N, D61A
VL: B1 VL with R24S, S27Q, A49R
B21: suPAR_DB06_F05 (scFv, V domains shown)
VH: B1 VH with Y27D, T28S, S31G, M34I, P53H, S57N
VL: B1 VL with R24S, A49R
B22: suPAR_DB06_F06 (scFv, V domains shown)
VH: B1 VH with Y27G, T30I, S31G, Y32H, M34V, P53H, S57N
VL: B1 VL with R24S, A49R
B23: suPAR_DB06_F08 (scFv, V domains shown)
VH: B1 VH with S31G, Y32N, M34V, P53H, E54S, S57N
VL: B1 VL with R24S, A49R
B24: suPAR_DB06_F09 (scFv, V domains shown)
VH: B1 VH with S31T, N55G, S57N
VL: B1 VL with R24S, R26S, S27Q, A49R
B25: suPAR_DB06_F11 (scFv, V domains shown)
VH: B1 VH with S31N, P53H, D61A
VL: B1 VL with R24S, A49R, A54Q
B26: suPAR_DB06_F12 (scFv, V domains shown)
VH: B1 VH with T30S, S57N, D61A
VL: B1 VL with S27Q, A49R
B27: suPAR_DB06_G01 (scFv, V domains shown)
VH: B1 VH with Y27D, S31G, P53H, D61A
VL: B1 VL with R24S, A49R
B28: suPAR_DB06_G02 (scFv, V domains shown)
VH: B1 VH with T28N, F29I, S31D, M34I
VL: B1 VL with A49R
B29: suPAR_DB06_G03 (scFv, V domains shown)
VH: B1 VH with T30S, N55G, S57N, D61A
VL: B1 VL with R24S, A49R
B30: suPAR_DB06_G04 (scFv, V domains shown)
VH: B1 VH with S31G, D52N, N55G, I59N, D61E
VL: B1 VL with R24S, S27Y, A49R
B31: suPAR_DB06_G06 (scFv, V domains shown)
VH: B1 VH with Y27F, S31A, S57N, D61A
VL: B1 VL with R24S, R26S, S27Q, A49R
B32: suPAR_DB06_C05 (scFv, V domains shown)
VH: QVQLVQSGAEVKKPGASVKVSCKASGGTFSSYAISWVRQAPGQGLEWMGVIDPSGGTTDYAQKFQGRVTMTRDTSTSTVYMELSSLRSEDTAVYYCARGYDVDWFVYWGQGTLVTVSS
VL: DIQMTQSPSSLSASVGDRVTITCRTSQSISSFLNWYQQKPGKAPKLLIYDVSHLESGVPSRFSGSGSGTDFTLTISSLQPEDFATYYCQQYHSYPPTFGGGTKVEIK
B33: suPAR_DB06_E01 (scFv, V domains shown)
VH: QVQLVQSGAEVKKPGASVKVSCKASGFNFKDYYIHWVRQAPGQGLEWMGWMDPSSGNTAYAQKFQGRVTMTRDTSTSTVYMELSSLRSEDTAVYYCARGYDVDWFVYWGQGTLVTVSS
VL: B1 VL with R24S, S27Q, V29I, A49R

What follows are binders tested against T1, human soluble urokinase plasminogen activator receptor (hsuPAR) (human, UniProt Q03405 23-303, limits assumed) (assay: off-rate screen of scFv clones (kdis), Octet BLI).
T1 construct: also called human suPAR; rhuPAR-His
T1 sequence (Q03405 23-303 limits assumed): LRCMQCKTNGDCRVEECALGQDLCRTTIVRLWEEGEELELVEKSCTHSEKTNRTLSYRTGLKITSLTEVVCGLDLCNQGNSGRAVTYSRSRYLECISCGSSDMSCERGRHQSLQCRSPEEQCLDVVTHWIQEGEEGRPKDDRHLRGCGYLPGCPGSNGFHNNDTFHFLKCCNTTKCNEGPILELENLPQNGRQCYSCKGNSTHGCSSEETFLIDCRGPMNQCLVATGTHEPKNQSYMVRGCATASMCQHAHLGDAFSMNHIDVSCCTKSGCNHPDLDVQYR

Binder | koff [s⁻¹]
B1 | 0.00497

Each binder was assayed against T2, cynomolgus soluble urokinase plasminogen activator receptor (suPAR) (cynomolgus, UniProt Q9GK78 23-303, limits assumed) (assay: off-rate (kdis) screen of scFv clones, biosensor (Octet)).
T2 construct: Target antigen of the off-rate screen; also called cynomolgus uPAR; cynomolgus suPAR
Target sequence in this assay (Q9GK78 23-303 limits assumed): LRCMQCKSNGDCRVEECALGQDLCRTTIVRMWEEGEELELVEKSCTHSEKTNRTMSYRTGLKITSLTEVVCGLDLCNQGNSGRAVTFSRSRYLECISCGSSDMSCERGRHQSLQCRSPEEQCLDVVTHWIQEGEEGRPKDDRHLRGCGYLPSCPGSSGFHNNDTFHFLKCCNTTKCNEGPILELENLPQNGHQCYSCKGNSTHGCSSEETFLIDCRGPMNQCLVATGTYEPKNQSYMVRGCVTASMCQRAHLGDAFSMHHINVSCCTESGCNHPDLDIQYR

Binder | koff [s⁻¹]
B2 | 0.000266
B3 | 0.000231
B4 | 0.00021
B5 | 0.000326
B6 | 4.27e-07

What follows are binders tested against T3, human soluble urokinase plasminogen activator receptor (suPAR) (human, UniProt Q03405 23-303, limits assumed) in the same assay as above.
T3 construct: Target antigen of the off-rate screen; also called hsuPAR; human suPAR
T3 sequence (Q03405 23-303 limits assumed): as the sequence (Q03405 23-303 limits assumed) above

Binder | koff [s⁻¹]
B2 | 0.00122
B3 | 0.00256
B4 | 0.000911
B5 | 0.00174
B6 | 0.00253
B7 | 3.54e-07

What follows are binders tested against T4, human soluble urokinase plasminogen activator receptor (hsuPAR) (human, UniProt Q03405 23-303, limits assumed) (assay: BLI (Octet) off-rate screen of scFv clones).
T4 construct: Target antigen of the off-rate screen; also called human suPAR; rhuPAR-His
T4 sequence (Q03405 23-303 limits assumed): as above

Binder | koff [s⁻¹]
B8 | 0.0544

Each binder was assayed against T5, cynomolgus soluble urokinase plasminogen activator receptor (suPAR) (cynomolgus, UniProt Q9GK78 23-303, limits assumed) (assay: BLI (Octet) off-rate screen of scFv clones).
T5 construct: Target antigen of the scFv off-rate screen; also called cynomolgus suPAR; cynomolgus uPAR
Target sequence in this assay (Q9GK78 23-303 limits assumed): as the sequence (Q9GK78 23-303 limits assumed) above

Binder | koff [s⁻¹]
B9 | 0.000905
B10 | 0.000319
B11 | 0.000388
B12 | 2.02e-05
B13 | 0.000301
B14 | 0.000271
B15 | 0.000723
B16 | 0.000164
B17 | 0.000197
B18 | 0.000258
B19 | 0.00059
B20 | 0.000315
B21 | 3.1e-07
B22 | 0.00055
B23 | 0.000537
B24 | 0.000353
B25 | 0.00059
B26 | 0.000195
B27 | 0.000134
B28 | 0.000375
B29 | 0.000231
B30 | 0.000223
B31 | 5.28e-07
B32 | 0.0623
B33 | 0.000126

What follows are binders tested against T6, human soluble urokinase plasminogen activator receptor (suPAR) (human, UniProt Q03405 23-303, limits assumed) (assay: BLI (Octet) off-rate screen of scFv clones).
T6 construct: Target antigen of the scFv off-rate screen; also called hsuPAR; human suPAR
T6 sequence (Q03405 23-303 limits assumed): as the sequence (Q03405 23-303 limits assumed) above

Binder | koff [s⁻¹]
B9 | 0.00315
B10 | 0.00135
B11 | 0.00497
B12 | 0.00335
B13 | 0.00316
B14 | 0.00526
B15 | 0.00118
B16 | 0.00373
B17 | 0.00305
B18 | 0.00157
B19 | 0.004
B20 | 0.00574
B21 | 0.00531
B22 | 0.00331
B23 | 0.00174
B24 | 0.00302
B25 | 0.000947
B26 | 0.00426
B27 | 0.00148
B28 | 0.00384
B29 | 0.00381
B30 | 0.00549
B31 | 0.00431
B32 | 0.373
B33 | 0.00483
